B1: SAFB1_HUMAN (protein, UniProt Q15424 2-915, looked up)
Scaffold attachment factor B1: AETLSGLGDSGAAGAAALSSASSETGTRRLSDLRVIDLRAELRKRNVDSSGNKSVLMERLKKAIEDEGGNPDEIEITSEGNKKTSKRSSKGRKPEEEGVEDNGLEENSGDGQEDVETSLENLQDIDIMDISVLDEAEIDNGSVADCVEDDDADNLQESLSDSRELVEGEMKELPEQLQEHAIEDKETINNLDTSSSDFTILQEIEEPSLEPENEKILDILGETCKSEPVKEESSELEQPFAQDTSSVGPDRKLAEEEDLFDSAHPEEGDLDLASESTAHAQSSKADSLLAVVKREPAEQPGDGERTDCEPVGLEPAVEQSSAASELAEASSEELAEAPTEAPSPEARDSKEDGRKFDFDACNEVPPAPKESSTSEGADQKMSSPEDDSDTKRLSKEEKGRSSCGRNFWVSGLSSTTRATDLKNLFSKYGKVVGAKVVTNARSPGARCYGFVTMSTAEEATKCINHLHKTELHGKMISVEKAKNEPVGKKTSDKRDSDGKKEKSSNSDRSTNLKRDDKCDRKDDAKKGDDGSGEKSKDQDDQKPGPSERSRATKSGSRGTERTVVMDKSKGVPVISVKTSGSKERASKSQDRKSASREKRSVVSFDKVKEPRKSRDSESHSRVRERSEREQRMQAQWEREERERLEIARERLAFQRQRLERERMERERLERERMHVEHERRREQERIHREREELRRQQELRYEQERRPAVRRPYDLDRRDDAYWPEAKRAALDERYHSDFNRQDRFHDFDHRDRGRYPDHSVDRREGSRSMMGEREGQHYPERHGGPERHGRDSRDGWGGYGSDKRMSEGRGLPPPPRRDWGDHGRREDDRSWQGTADGGMMDRDHKRWQGGERSMSGHSGPGHMMNRGGMSGRGSFAPGGASRGHPIPHGGMQGGFGGQSRGSRPSDARFTRRY
B2: KRT85_HUMAN (protein, UniProt P78386 1-507, looked up)
Keratin, type II cuticular Hb5: MSCRSYRISSGCGVTRNFSSCSAVAPKTGNRCCISAAPYRGVSCYRGLTGFGSRSLCNLGSCGPRIAVGGFRAGSCGRSFGYRSGGVCGPSPPCITTVSVNESLLTPLNLEIDPNAQCVKQEEKEQIKSLNSRFAAFIDKVRFLEQQNKLLETKWQFYQNQRCCESNLEPLFSGYIETLRREAECVEADSGRLASELNHVQEVLEGYKKKYEEEVALRATAENEFVVLKKDVDCAYLRKSDLEANVEALVEESSFLRRLYEEEIRVLQAHISDTSVIVKMDNSRDLNMDCIIAEIKAQYDDVASRSRAEAESWYRSKCEEMKATVIRHGETLRRTKEEINELNRMIQRLTAEIENAKCQRAKLEAAVAEAEQQGEAALSDARCKLAELEGALQKAKQDMACLLKEYQEVMNSKLGLDIEIATYRRLLEGEEHRLCEGVGSVNVCVSSSRGGVSCGGLSYSTTPGRQITSGPSAIGGSITVVAPDSCAPCQPRSSSFSCGSSRSVRFA
B3: ATX2L_HUMAN (protein, UniProt Q8WWM7 1-1075, looked up)
Ataxin-2-like protein: MLKPQPLQQPSQPQQPPPTQQAVARRPPGGTSPPNGGLPGPLATSAAPPGPPAAASPCLGPVAAAGSGLRRGAEGILAPQPPPPQQHQERPGAAAIGSARGQSTGKGPPQSPVFEGVYNNSRMLHFLTAVVGSTCDVKVKNGTTYEGIFKTLSSKFELAVDAVHRKASEPAGGPRREDIVDTMVFKPSDVMLVHFRNVDFNYATKDKFTDSAIAMNSKVNGEHKEKVLQRWEGGDSNSDDYDLESDMSNGWDPNEMFKFNEENYGVKTTYDSSLSSYTVPLEKDNSEEFRQRELRAAQLAREIESSPQYRLRIAMENDDGRTEEEKHSAVQRQGSGRESPSLASREGKYIPLPQRVREGPRGGVRCSSSRGGRPGLSSLPPRGPHHLDNSSPGPGSEARGINGGPSRMSPKAQRPLRGAKTLSSPSNRPSGETSVPPPPAVGRMYPPRSPKSAAPAPISASCPEPPIGSAVPTSSASIPVTSSVSDPGVGSISPASPKISLAPTDVKELSTKEPGRTLEPQELARIAGKVPGLQNEQKRFQLEELRKFGAQFKLQPSSSPENSLDPFPPRILKEEPKGKEKEVDGLLTSEPMGSPVSSKTESVSDKEDKPPLAPSGGTEGPEQPPPPCPSQTGSPPVGLIKGEDKDEGPVAEQVKKSTLNPNAKEFNPTKPLLSVNKSTSTPTSPGPRTHSTPSIPVLTAGQSGLYSPQYISYIPQIHMGPAVQAPQMYPYPVSNSVPGQQGKYRGAKGSLPPQRSDQHQPASAPPMMQAAAAAGPPLVAATPYSSYIPYNPQQFPGQPAMMQPMAHYPSQPVFAPMLQSNPRMLTSGSHPQAIVSSSTPQYPSAEQPTPQALYATVHQSYPHHATQLHAHQPQPATTPTGSQPQSQHAAPSPVQHQAGQAPHLGSGQPQQNLYHPGALTGTPPSLPPGPSAQSPQSSFPQPAAVYAIHHQQLPHGFTNMAHVTQAHVQTGITAAPPPHPGAPHPPQVMLLHPPQSHGGPPQGAVPQSGVPALSASTPSPYPYIGHPQGEQPGQAPGFPGGADDRIREFSLAGGIWHGRAEGLQVGQDARVLGGE
B4: PREP_HUMAN (protein, UniProt Q5JRX3 29-1037, looked up)
Presequence protease, …: NSNRACERALQYKLGDKIHGFTVNQVTSVPELFLTAVKLTHDDTGARYLHLAREDTNNLFSVQFRTTPMDSTGVPHILEHTVLCGSQKYPCRDPFFKMLNRSLSTFMNAFTASDYTLYPFSTQNPKDFQNLLSVYLDATFFPCLRELDFWQEGWRLEHENPSDPQTPLVFKGVVFNEMKGAFTDNERIFSQHLQNRLLPDHTYSVVSGGDPLCIPELTWEQLKQFHATHYHPSNARFFTYGNFPLEQHLKQIHEEALSKFQKIEPSTVVPAQTPWDKPREFQITCGPDSFATDPSKQTTISVSFLLPDITDTFEAFTLSLLSSLLTSGPNSPFYKALIESGLGTDFSPDVGYNGYTREAYFSVGLQGIAEKDIETVRSLIDRTIDEVVEKGFEDDRIEALLHKIEIQMKHQSTSFGLMLTSYIASCWNHDGDPVELLKLGNQLAKFRQCLQENPKFLQEKVKQYFKNNQHKLTLSMRPDDKYHEKQAQVEATKLKQKVEALSPGDRQQIYEKGLELRSQQSKPQDASCLPALKVSDIEPTIPVTELDVVLTAGDIPVQYCAQPTNGMVYFRAFSSLNTLPEELRPYVPLFCSVLTKLGCGLLDYREQAQQIELKTGGMSASPHVLPDDSHMDTYEQGVLFSSLCLDRNLPDMMQLWSEIFNNPCFEEEEHFKVLVKMTAQELANGIPDSGHLYASIRAGRTLTPAGDLQETFSGMDQVRLMKRIAEMTDIKPILRKLPRIKKHLLNGDNMRCSVNATPQQMPQTEKAVEDFLRSIGRSKKERRPVRPHTVEKPVPSSSGGDAHVPHGSQVIRKLVMEPTFKPWQMKTHFLMPFPVNYVGECIRTVPYTDPDHASLKILARLMTAKFLHTEIREKGGAYGGGAKLSHNGIFTLYSYRDPNTIETLQSFGKAVDWAKSGKFTQQDIDEAKLSVFSTVDAPVAPSDKGMDHFLYGLSDEMKQAHREQLFAVSHDKLLAVSDRYLGTGKSTHGLAILGPENPKIAKDPSWIIQ
B5: YTDC2_HUMAN (protein, UniProt Q9H6S0 1-1430, looked up)
3'-5' RNA helicase YTHDC2: MSRPSSVSPRQPAPGGGGGGGPSPCGPGGGGRAKGLKDIRIDEEVKIAVNIALERFRYGDQREMEFPSSLTSTERAFIHRLSQSLGLVSKSKGKGANRYLTVKKKDGSETAHAMMTCNLTHNTKHAVRSLIQRFPVTNKERTELLPKTERGNVFAVEAENREMSKTSGRLNNGIPQIPVKRGESEFDSFRQSLPVFEKQEEIVKIIKENKVVLIVGETGSGKTTQIPQFLLDDCFKNGIPCRIFCTQPRRLAAIAVAERVAAERRERIGQTIGYQIRLESRVSPKTLLTFCTNGVLLRTLMAGDSTLSTVTHVIVDEVHERDRFSDFLLTKLRDLLQKHPTLKLILSSAALDVNLFIRYFGSCPVIYIQGRPFEVKEMFLEDILRTTGYTNKEMLKYKKEKQQEEKQQTTLTEWYSAQENSFKPESQRQRTVLNVTDEYDLLDDGGDAVFSQLTEKDVNCLEPWLIKEMDACLSDIWLHKDIDAFAQVFHLILTENVSVDYRHSETSATALMVAAGRGFASQVEQLISMGANVHSKASNGWMALDWAKHFGQTEIVDLLESYSATLEFGNLDESSLVQTNGSDLSAEDRELLKAYHHSFDDEKVDLDLIMHLLYNICHSCDAGAVLIFLPGYDEIVGLRDRILFDDKRFADSTHRYQVFMLHSNMQTSDQKKVLKNPPAGVRKIILSTNIAETSITVNDVVFVIDSGKVKEKSFDALNFVTMLKMVWISKASAIQRKGRAGRCRPGICFRLFSRLRFQNMLEFQTPELLRMPLQELCLHTKLLAPVNCPIADFLMKAPEPPPALIVRNAVQMLKTIDAMDTWEDLTELGYHLADLPVEPHLGKMVLCAVVLKCLDPILTIACTLAYRDPFVLPTQASQKRAAMLCRKRFTAGAFSDHMALLRAFQAWQKARSDGWERAFCEKNFLSQATMEIIIGMRTQLLGQLRASGFVRARGGGDIRDVNTNSENWAVVKAALVAGMYPNLVHVDRENLVLTGPKEKKVRFHPASVLSQPQYKKIPPANGQAAAIKALPTDWLIYDEMTRAHRIANIRCCSAVTPVTILVFCGPARLASNALQEPSSFRVDGIPNDSSDSEMEDKTTANLAALKLDEWLHFTLEPEAASLLLQLRQKWHSLFLRRMRAPSKPWSQVDEATIRAIIAVLSTEEQSAGLQQPSGIGQRPRPMSSEELPLASSWRSNNSRKSSADTEFSDECTTAERVLMKSPSPALHPPQKYKDRGILHPKRGTEDRSDQSSLKSTDSSSYPSPCASPSPPSSGKGSKSPSPRPNMPVRYFIMKSSNLRNLEISQQKGIWSTTPSNERKLNRAFWESSIVYLVFSVQGSGHFQGFSRMSSEIGREKSQDWGSAGLGGVFKVEWIRKESLPFQFAHHLLNPWNDNKKVQISRDGQELEPLVGEQLLQLWERLPLGEKNTTD
B6: NCKP1_HUMAN (protein, UniProt Q9Y2A7 2-1128, looked up)
Nck-associated protein 1: SRSVLQPSQQKLAEKLTILNDRGVGMLTRLYNIKKACGDPKAKPSYLIDKNLESAVKFIVRKFPAVETRNNNQQLAQLQKEKSEILKNLALYYFTFVDVMEFKDHVCELLNTIDVCQVFFDITVNFDLTKNYLDLIITYTTLMILLSRIEERKAIIGLYNYAHEMTHGASDREYPRLGQMIVDYENPLKKMMEEFVPHSKSLSDALISLQMVYPRRNLSADQWRNAQLLSLISAPSTMLNPAQSDTMPCEYLSLDAMEKWIIFGFILCHGILNTDATALNLWKLALQSSSCLSLFRDEVFHIHKAAEDLFVNIRGYNKRINDIRECKEAAVSHAGSMHRERRKFLRSALKELATVLSDQPGLLGPKALFVFMALSFARDEIIWLLRHADNMPKKSADDFIDKHIAELIFYMEELRAHVRKYGPVMQRYYVQYLSGFDAVVLNELVQNLSVCPEDESIIMSSFVNTMTSLSVKQVEDGEVFDFRGMRLDWFRLQAYTSVSKASLGLADHRELGKMMNTIIFHTKMVDSLVEMLVETSDLSIFCFYSRAFEKMFQQCLELPSQSRYSIAFPLLCTHFMSCTHELCPEERHHIGDRSLSLCNMFLDEMAKQARNLITDICTEQCTLSDQLLPKHCAKTISQAVNKKSKKQTGKKGEPEREKPGVESMRKNRLVVTNLDKLHTALSELCFSINYVPNMVVWEHTFTPREYLTSHLEIRFTKSIVGMTMYNQATQEIAKPSELLTSVRAYMTVLQSIENYVQIDITRVFNNVLLQQTQHLDSHGEPTITSLYTNWYLETLLRQVSNGHIAYFPAMKAFVNLPTENELTFNAEEYSDISEMRSLSELLGPYGMKFLSESLMWHISSQVAELKKLVVENVDVLTQMRTSFDKPDQMAALFKRLSSVDSVLKRMTIIGVILSFRSLAQEALRDVLSYHIPFLVSSIEDFKDHIPRETDMKVAMNVYELSSAAGLPCEIDPALVVALSSQKSENISPEEEYKIACLLMVFVAVSLPTLASNVMSQYSPAIEGHCNNIHCLAKAINQIAAALFTIHKGSIEDRLKEFLALASSSLLKIGQETDKTTTRNRESVYLLLDMIVQESPFLTMDLLESCFPYVLLRNAYHAVYKQSVTSSA

System: KDM4A-I71AzF
Assay: CASI: photo-crosslinking with HEK293T cell extracts, StrepTactin enrichment and LC-MS/MS proteomics;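 note: lysates from HEK293T cells pretreated with a KDM4 inhibitor to raise proteome methylation, affinity-purified after ±UV, gel-resolved, trypsin-digested, with exclusive unique peptides per protein averaged per condition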
Format: binding, human
Conditions: sheet "Final results but with 0.01"

Row | Molecule | Fold change (+UV/-UV)
1 | B1 | 0.5
2 | B2 | 3
3 | B3 | 0
4 | B4 | 0.2
5 | B5 | 0.3333
6 | B6 | 0.6
